Columns and labels:
Grb2 SH2 = Grb2 SH2 (UniProt P62993); assay: SH2 binding enrichment of the phosphorylated peptide, bacterial display (enrichment ratio); higher = better substrate or ligand; peptides without Tyr show the background
c-Src SH2 = assay: as above
SHP2-C SH2 = assay: as above
Jak2 = Jak2 (UniProt O60674); assay: phosphorylation enrichment, bacterial display (enrichment ratio); higher = better substrate or ligand; peptides without Tyr show the background
Hck = Hck (UniProt P08631); assay: as above
Fes = Fes (UniProt P07332); assay: as above
Sequence of Fes (P07332 whole entry, looked up): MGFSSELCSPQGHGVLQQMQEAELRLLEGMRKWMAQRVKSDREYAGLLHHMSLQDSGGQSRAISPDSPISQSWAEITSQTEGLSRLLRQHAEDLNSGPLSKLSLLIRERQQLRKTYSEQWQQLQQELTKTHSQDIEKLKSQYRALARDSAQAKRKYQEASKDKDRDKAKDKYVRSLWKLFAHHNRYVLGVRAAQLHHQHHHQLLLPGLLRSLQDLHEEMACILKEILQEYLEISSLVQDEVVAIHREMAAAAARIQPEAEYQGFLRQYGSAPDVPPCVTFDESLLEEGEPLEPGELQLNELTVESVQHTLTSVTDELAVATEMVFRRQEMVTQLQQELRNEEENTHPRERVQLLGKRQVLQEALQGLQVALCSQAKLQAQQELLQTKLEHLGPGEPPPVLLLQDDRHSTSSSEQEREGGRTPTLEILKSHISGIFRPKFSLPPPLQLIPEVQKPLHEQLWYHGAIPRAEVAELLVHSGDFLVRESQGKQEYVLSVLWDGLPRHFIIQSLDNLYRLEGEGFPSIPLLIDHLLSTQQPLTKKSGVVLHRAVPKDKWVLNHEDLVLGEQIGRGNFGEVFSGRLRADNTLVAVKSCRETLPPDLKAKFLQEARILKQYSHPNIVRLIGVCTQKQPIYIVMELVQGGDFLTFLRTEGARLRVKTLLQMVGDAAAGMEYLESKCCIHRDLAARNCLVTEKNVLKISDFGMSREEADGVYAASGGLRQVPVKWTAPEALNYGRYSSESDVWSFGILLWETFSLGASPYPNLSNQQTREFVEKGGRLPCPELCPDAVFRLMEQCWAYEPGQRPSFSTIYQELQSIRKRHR

AncSZ = assay: as above
FGFR1 = FGFR1 (UniProt P11362); assay: as above
Sequence of FGFR1 (P11362 whole entry, looked up): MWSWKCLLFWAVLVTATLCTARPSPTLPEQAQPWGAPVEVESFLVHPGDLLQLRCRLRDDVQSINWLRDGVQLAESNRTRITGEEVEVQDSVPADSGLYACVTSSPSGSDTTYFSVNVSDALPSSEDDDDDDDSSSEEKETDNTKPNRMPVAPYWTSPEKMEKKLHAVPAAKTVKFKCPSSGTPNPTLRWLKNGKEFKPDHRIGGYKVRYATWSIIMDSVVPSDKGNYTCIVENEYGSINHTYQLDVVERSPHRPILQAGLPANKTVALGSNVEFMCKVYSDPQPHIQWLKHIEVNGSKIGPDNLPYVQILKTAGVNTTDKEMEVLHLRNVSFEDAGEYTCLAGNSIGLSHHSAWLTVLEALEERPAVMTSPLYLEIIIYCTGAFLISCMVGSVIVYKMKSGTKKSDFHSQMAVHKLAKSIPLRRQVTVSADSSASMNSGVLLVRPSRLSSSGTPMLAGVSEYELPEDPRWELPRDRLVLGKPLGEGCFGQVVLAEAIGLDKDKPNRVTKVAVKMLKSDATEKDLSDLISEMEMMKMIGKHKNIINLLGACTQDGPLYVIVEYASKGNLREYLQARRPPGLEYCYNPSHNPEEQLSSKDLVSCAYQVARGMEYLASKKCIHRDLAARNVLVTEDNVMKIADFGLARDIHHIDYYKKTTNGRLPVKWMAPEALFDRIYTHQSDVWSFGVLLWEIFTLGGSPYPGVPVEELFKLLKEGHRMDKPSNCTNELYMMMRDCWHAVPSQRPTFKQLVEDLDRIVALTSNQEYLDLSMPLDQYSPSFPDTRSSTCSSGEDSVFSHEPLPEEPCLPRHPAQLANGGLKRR

Fyn = Fyn (UniProt P06241); assay: as above
Sequence of Fyn (P06241 whole entry, looked up): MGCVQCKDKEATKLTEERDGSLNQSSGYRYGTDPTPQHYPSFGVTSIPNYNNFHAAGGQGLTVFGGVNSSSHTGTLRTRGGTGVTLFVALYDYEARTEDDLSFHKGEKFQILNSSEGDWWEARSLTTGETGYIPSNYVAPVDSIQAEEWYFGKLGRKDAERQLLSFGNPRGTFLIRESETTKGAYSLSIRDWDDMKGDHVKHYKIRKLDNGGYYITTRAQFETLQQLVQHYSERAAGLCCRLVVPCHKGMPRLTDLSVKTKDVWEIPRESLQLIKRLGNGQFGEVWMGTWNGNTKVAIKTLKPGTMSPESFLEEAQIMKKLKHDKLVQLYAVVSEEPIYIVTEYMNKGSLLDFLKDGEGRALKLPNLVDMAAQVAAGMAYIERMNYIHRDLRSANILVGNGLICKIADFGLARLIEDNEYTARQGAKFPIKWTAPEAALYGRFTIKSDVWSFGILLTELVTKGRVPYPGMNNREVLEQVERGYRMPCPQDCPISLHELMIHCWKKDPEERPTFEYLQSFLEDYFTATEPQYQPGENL

c-Abl (mouse) = assay: as above
FGFR3 = FGFR3 (UniProt P22607); assay: as above
Sequence of FGFR3 (P22607 whole entry, looked up): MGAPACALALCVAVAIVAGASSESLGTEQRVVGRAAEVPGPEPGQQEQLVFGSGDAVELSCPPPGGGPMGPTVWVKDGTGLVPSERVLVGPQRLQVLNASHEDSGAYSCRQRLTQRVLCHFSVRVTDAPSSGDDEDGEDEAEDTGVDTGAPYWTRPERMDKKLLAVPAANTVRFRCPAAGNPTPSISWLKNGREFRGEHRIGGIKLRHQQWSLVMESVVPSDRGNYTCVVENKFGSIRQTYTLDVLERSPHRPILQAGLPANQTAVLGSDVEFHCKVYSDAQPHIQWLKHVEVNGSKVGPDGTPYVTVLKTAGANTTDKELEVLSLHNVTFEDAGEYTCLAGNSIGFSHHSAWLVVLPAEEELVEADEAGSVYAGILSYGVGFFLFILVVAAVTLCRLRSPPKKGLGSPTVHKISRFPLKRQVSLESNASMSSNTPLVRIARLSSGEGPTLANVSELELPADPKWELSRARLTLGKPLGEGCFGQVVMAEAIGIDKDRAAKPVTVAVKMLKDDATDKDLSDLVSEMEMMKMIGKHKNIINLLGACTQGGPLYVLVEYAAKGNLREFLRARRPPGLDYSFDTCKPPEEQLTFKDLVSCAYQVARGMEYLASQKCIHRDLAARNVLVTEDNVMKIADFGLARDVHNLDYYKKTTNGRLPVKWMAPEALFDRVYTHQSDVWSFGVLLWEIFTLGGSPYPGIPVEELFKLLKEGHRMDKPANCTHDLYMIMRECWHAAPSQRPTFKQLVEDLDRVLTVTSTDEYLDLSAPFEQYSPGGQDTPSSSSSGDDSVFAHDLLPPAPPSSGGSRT

c-Src = assay: as above
MERTK = MERTK (UniProt Q12866); assay: as above
Sequence of MERTK (Q12866 whole entry, looked up): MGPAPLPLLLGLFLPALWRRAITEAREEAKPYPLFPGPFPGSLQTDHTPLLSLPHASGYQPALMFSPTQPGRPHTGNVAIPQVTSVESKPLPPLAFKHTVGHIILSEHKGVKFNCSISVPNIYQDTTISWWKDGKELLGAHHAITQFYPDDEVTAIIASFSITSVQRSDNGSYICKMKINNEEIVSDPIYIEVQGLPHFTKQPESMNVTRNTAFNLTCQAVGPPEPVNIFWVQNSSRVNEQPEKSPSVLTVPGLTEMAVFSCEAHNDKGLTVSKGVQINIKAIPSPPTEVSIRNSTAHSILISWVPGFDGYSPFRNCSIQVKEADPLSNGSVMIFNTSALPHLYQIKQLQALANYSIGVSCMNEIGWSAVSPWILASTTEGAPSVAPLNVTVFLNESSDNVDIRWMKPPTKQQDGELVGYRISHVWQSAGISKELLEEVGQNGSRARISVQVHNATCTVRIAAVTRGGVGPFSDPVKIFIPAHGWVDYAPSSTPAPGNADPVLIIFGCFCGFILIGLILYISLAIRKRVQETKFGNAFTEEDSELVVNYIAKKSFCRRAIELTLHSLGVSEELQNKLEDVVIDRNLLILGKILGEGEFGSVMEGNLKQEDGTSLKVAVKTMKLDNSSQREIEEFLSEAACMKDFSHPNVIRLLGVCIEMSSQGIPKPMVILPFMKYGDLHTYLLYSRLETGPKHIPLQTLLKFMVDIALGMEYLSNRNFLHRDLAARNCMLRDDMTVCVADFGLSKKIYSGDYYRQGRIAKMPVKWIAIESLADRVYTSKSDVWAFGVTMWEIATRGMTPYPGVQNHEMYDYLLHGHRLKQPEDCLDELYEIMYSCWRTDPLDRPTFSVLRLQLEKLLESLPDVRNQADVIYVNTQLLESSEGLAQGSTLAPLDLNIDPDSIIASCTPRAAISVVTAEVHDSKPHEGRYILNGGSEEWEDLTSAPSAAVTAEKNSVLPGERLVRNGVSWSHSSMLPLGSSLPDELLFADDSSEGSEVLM

Fer (mouse) = assay: as above
EPHB1 = EPHB1 (UniProt P54762); assay: as above
Sequence of EPHB1 (P54762 whole entry, looked up): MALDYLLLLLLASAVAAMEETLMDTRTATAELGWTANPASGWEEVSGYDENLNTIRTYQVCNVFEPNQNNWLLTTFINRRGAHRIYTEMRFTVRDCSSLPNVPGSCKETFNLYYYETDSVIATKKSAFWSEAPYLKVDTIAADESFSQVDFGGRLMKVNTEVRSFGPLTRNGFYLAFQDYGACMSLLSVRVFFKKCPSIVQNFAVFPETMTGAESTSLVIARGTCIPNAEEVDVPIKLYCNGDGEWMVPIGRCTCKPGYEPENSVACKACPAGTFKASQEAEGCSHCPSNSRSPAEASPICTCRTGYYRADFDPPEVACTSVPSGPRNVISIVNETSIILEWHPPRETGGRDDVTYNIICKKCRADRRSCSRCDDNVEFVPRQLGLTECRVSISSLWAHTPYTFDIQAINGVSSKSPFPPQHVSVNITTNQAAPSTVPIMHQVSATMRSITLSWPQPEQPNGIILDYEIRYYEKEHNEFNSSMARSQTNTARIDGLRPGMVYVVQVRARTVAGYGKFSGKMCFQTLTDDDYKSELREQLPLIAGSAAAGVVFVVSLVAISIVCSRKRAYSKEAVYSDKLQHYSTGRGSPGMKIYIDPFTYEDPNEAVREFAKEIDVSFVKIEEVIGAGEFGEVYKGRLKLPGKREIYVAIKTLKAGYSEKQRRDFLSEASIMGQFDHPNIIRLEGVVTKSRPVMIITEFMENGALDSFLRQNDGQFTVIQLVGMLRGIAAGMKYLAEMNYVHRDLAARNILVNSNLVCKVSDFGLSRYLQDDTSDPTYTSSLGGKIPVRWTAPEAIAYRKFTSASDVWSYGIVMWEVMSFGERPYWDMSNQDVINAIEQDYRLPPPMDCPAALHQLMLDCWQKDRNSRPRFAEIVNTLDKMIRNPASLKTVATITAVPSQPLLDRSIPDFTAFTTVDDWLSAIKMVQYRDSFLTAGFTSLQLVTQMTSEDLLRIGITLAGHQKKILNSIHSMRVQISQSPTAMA

EPHB2 = EPHB2 (UniProt P29323); assay: as above
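For SH2 binding enrichment of the phosphorylated peptide, bacterial display in this document: peptide library displayed on the E. coli surface as eCPX fusions, selected cells deep-sequenced, score is each peptide's frequency after selection divided by its frequency in the input.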
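For phosphorylation enrichment, bacterial display in this document: 11-residue human phosphosite peptides and single-mutation variants displayed on the E. coli surface, counted by deep sequencing, each peptide's frequency after selection divided by its frequency in the unselected input library; frequency after pTyr selection over input frequency; kinase dosed for 20-30% of maximal phosphorylation in three min.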

| Sequence | SH2 binding enrichment (Grb2 SH2) | SH2 binding enrichment (c-Src SH2) | SH2 binding enrichment (SHP2-C SH2) | phosphorylation enrichment (Jak2) | phosphorylation enrichment (Hck) | phosphorylation enrichment (Fes) | phosphorylation enrichment (AncSZ) | phosphorylation enrichment (FGFR1) | phosphorylation enrichment (Fyn) | phosphorylation enrichment (c-Abl (mouse)) | phosphorylation enrichment (FGFR3) | phosphorylation enrichment (c-Src) | phosphorylation enrichment (MERTK) | phosphorylation enrichment (Fer (mouse)) | phosphorylation enrichment (EPHB1) | phosphorylation enrichment (EPHB2) |
| --- | --- | --- | --- | --- | --- | --- | --- | --- | --- | --- | --- | --- | --- | --- | --- | --- |
| EAESWYQTKFE [KRT75_Y342_YF] | 0.794 | 0.699 | 0.434 | 0.906 | 0.735 | 1.18 | 1.06 | 0.49 | 0.662 | 0.684 | 0.808 | 0.583 | 0.436 | 0.624 | 0.721 | 0.568 |
| GIVKAYYVHAR [AIPL1_Y267_R270H] | 1.23 | 0.982 | 1.05 | 0.866 | 0.412 | 0.736 | 0.732 | 0.482 | 0.418 | 0.569 | 0.514 | 0.538 | 0.436 | 0.452 | 0.498 | 0.51 |
| MSSHHYDFKKF [ZNF445_Y428_YF] | 0.784 | 0.485 | 0.544 | 0.382 | 0.362 | 0.462 | 0.466 | 0.339 | 0.384 | 0.39 | 0.346 | 0.415 | 0.376 | 0.308 | 0.533 | 0.311 |
| DVAKEYGHLLP [HRC_Y99_S96A] | 0.984 | 0.429 | 0.604 | 0.781 | 0.547 | 0.822 | 0.723 | 0.436 | 0.422 | 0.555 | 0.522 | 0.52 | 0.402 | 0.403 | 0.517 | 0.512 |

Continued, in another order:

| SH2 binding enrichment (Grb2 SH2) | SH2 binding enrichment (c-Src SH2) | SH2 binding enrichment (SHP2-C SH2) | Sequence | phosphorylation enrichment (Jak2) | phosphorylation enrichment (Hck) | phosphorylation enrichment (Fes) | phosphorylation enrichment (AncSZ) | phosphorylation enrichment (FGFR1) | phosphorylation enrichment (Fyn) | phosphorylation enrichment (c-Abl (mouse)) | phosphorylation enrichment (FGFR3) | phosphorylation enrichment (c-Src) | phosphorylation enrichment (MERTK) | phosphorylation enrichment (Fer (mouse)) | phosphorylation enrichment (EPHB1) | phosphorylation enrichment (EPHB2) |
| --- | --- | --- | --- | --- | --- | --- | --- | --- | --- | --- | --- | --- | --- | --- | --- | --- |
| 0.997 | 0.878 | 0.863 | RMDGKYACSYT [FLNB_Y704_T703K] | 0.722 | 0.541 | 1.02 | 0.899 | 0.528 | 0.418 | 0.79 | 0.518 | 0.664 | 0.484 | 0.635 | 0.437 | 0.471 |
| 0.955 | 0.549 | 0.646 | EESSHYSTEKE [ADAR_Y587] | 0.658 | 0.589 | 1.47 | 1.14 | 0.597 | 0.633 | 0.604 | 0.578 | 0.427 | 0.509 | 0.531 | 0.621 | 0.493 |
| 0.606 | 0.434 | 0.495 | STEAIYWRFSK [SH3PXD2B_Y42_R43W_YF] | 1.29 | 2.51 | 1.51 | 1.2 | 0.913 | 3.69 | 7.78 | 1.13 | 2.98 | 1.32 | 0.564 | 1.05 | 0.74 |
